According to patent US20210145976A1:

How the values were obtained:
[1] = target: human serum albumin (human) (UniProt P02768); assay: screening ELISA
[2] = target: T1, recombinant biotinylated CD71 extracellular domain (Sino Biologics) with an N-terminal 6His tag (human), P02786; assay: screening ELISA
[3] = target: T1, recombinant biotinylated CD71 …; assay: screening ELISA, ratio

human serum albumin (human), sequence (P02768 25-609 limits assumed): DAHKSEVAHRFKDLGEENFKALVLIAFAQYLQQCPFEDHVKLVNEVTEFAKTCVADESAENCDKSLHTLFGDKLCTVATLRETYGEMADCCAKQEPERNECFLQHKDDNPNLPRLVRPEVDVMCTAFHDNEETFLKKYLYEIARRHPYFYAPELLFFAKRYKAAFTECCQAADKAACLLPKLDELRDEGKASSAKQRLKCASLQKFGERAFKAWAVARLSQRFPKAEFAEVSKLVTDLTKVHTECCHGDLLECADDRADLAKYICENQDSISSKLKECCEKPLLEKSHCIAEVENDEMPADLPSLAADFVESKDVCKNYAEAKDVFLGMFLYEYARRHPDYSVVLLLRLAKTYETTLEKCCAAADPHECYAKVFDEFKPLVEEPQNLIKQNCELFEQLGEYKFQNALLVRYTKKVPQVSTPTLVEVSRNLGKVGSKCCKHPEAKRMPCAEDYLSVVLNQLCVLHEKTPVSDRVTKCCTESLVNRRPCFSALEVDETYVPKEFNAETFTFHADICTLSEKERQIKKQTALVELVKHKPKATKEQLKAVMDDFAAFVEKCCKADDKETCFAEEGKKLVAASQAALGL
T1 sequence (P02786 other isoform, or with tags, fused parts or gaps): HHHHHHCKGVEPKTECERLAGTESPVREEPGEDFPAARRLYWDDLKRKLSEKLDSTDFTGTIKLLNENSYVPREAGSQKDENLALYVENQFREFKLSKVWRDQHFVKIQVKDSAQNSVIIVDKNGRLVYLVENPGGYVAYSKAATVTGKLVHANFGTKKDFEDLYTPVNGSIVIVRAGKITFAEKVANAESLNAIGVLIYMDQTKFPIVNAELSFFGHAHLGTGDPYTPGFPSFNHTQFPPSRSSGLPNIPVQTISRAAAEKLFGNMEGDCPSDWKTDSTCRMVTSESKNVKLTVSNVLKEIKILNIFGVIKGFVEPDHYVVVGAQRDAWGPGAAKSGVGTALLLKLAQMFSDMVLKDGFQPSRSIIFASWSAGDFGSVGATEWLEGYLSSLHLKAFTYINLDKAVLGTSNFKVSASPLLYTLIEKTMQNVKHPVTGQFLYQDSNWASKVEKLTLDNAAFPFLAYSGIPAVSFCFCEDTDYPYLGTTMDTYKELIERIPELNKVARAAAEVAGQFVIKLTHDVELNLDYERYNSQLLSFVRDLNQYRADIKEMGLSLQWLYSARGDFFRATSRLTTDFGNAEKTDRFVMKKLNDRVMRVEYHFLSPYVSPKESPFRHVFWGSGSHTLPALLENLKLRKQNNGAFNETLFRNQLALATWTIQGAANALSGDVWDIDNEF

HSA [1] | hCD71 [2] | hCD71:HSA [3] | Binder
28600 |  |  | SEQ ID NO 81 (designed binder) MLPAPKNLVVSRVTEDSARLSWTAPDAAFDSFVIEYREGAWYGEAIVLTVPGSERSYDLTGLKPGTEYAVYIPGVKGGPRSFPLSAIFTT
 | 446000 | 21 | SEQ ID NO 280 (designed binder, X: residue not identified in the source; also: C-terminal poly-His tag, letters not given here) MLPAPKNLVVRXVTEDSARLSWTAPDAAFDSFEIEYDEPYRGGEAIVLTVPGSERSYDLTSLKPGTEYPVSIGGVKGGITSDPLSAIFTT
18900 |  |  | SEQ ID NO 82 (designed binder) MLPAPKNLVVSRVTEDSARLSWTAPDAAFDSFAIAYVEWWKLGEAIVLTVPGSERSYDLTGLKPGTEYVVPIPGVKGGGHSSPLSAIFTT

The next lines start with the binder.

Binder | HSA [1] | hCD71 [2] | hCD71:HSA [3]
SEQ ID NO 60 (designed binder) MLPAPKNLVVSRVTEDSARLSWTAPDAAFDSFTIWYAEAIGHGEAIVLTVPGSERSYDLTGLKPGTEYWVDIWGVKGGQQSKPLSAIFTT | 6480 |  | 
SEQ ID NO 61 (designed binder) MLPAPKNLVVSRVTEDSARLSWRVESRTFDSFLIQYQESEKVGEAIVLTVPGSERSYDLTGLKPGTEYTVSIYGVVWDTRDNPISNPLSAIFTT | 10600 |  | 
